Results published in publication PMC6405929, “Targeted drug delivery via caveolae-associated protein PV1 improves lung fibrosis” (Communications Biology, 2019).

Biological target: T1, Plasmalemma vesicle-associated protein (PV1), recombinant mouse (Mus musculus, UniProt Q91VC4)
T1 construct: plasmalemma vesicle-associated protein (PV1), mouse, recombinant; also called mouse PV1; recombinant mouse PV1
Experiment: SPR; ProteOn XPR36; mouse PV1 amine-coupled to a GLC chip at ~200 RU; antibodies injected at 100 μl/min; 25 °C, PBS pH 7.2; 1:1 Langmuir model
Conditions: both partners purified

T1 sequence (Q91VC4 whole entry): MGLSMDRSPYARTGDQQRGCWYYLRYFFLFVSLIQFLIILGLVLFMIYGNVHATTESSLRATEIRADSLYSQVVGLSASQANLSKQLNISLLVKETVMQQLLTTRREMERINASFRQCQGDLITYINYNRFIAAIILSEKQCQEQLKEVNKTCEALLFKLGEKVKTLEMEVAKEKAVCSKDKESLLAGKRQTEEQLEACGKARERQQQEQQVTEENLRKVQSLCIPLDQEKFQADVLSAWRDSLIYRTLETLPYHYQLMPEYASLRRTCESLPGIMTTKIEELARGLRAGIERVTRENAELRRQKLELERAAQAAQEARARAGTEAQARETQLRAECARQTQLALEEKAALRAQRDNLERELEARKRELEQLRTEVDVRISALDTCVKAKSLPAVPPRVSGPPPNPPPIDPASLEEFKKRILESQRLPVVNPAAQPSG

B1: αPV1 IgG (de novo sequenced Meca32 variant as a human IgG1 chimeric antibody) (antibody, V domains shown)
VH: EVQLVESGGGLVQPGRSMKLSCAASGFTFSDYYMAWVRQAPKKGLEWVASISYEGNKTYYGDSVKGRFTISRDNAKSILYLQMNSLKSEDTATYYCARQSYSSYLFDYWGQGVM
VL: DIQMTQTPSSMSASLGERVTLSCGTSQGVNLFLNWYQQKPDGTIKPLIFFTSHLQSGVPSRFSGSGSGTAYSLTISSLEPEDFAVYYCQQYDSSPPTFGGGTKLYLK
notes: human IgG1 heavy-chain constant region (chimeric antibody); VL of the chosen Meca32 variant; light-chain constant region; Human IgG1 chimera of rat variable domains; also called anti-PV1 antibody; αPV1 mAb; source: HEK293F, transient, purified (protein A; SEC if necessary)
In the case of B1, the Kd is reported as 0.5 nM.
